Reference: patent US20180155451A1 (published 2018)

T1: FcγRIIa R (human, UniProt P12318 34-217)
T1 construct: extracellular domain; also called FcgRIIa R type; 2aR
T1 sequence (looked up): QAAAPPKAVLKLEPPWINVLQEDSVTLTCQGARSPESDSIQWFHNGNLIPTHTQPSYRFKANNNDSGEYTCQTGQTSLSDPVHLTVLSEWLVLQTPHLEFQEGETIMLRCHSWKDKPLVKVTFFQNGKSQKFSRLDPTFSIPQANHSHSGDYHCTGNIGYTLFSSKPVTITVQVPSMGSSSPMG

T2: FcγRIIb (human, UniProt P31994 43-217)
T2 construct: extracellular domain; also called FcgRIIb; 2b
T2 sequence (looked up): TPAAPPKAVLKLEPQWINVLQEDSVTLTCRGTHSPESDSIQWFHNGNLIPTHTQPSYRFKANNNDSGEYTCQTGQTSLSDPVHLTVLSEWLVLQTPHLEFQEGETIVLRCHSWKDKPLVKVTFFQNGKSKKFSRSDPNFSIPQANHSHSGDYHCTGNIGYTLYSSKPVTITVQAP


How the values were obtained:
FcγRIIa R [1] = target: T1, FcγRIIa R; experiment: SPR; He/Con_2aR divided by He/Con_2b (FcγRIIb as reference)
Protocol: (§1) The heterodimerized antibodies He Abs in which one of the H chains was introduced with an alteration were assayed for their binding activities to each activating FcγR and inhibitory FcγR according to the method described in Example 4. […] The activating FcγRs in FIGS. 26, 27, 28, and 29 are FcγRIa, FcγRIIa (R), FcγRIIa (H), and FcγRIIIa, respectively.
(§2) Analysis of interaction between objective antibody and the FcγR was carried out using Biacore T100 (GE Healthcare). HBS-EP+ (GE Healthcare) was used as the running buffer, and the measurement temperature was set to 25° C. Chips produced by immobilizing the antigen peptide by the amine coupling method to a Series S Sencor Chip CM5 (GE Healthcare), or alternatively, chips produced by allowing preliminarily biotinylated antigen peptides to interact with and immobilize onto a Series S Sensor Chip SA (certified) (GE Healthcare) were used. Antibodies of interest were captured onto an antigen peptide-immobilized chip, and allowed to interact to each FcγR diluted with running buffer. To regenerate and repeatedly use the chip, the antibodies captured on the chip were washed off by reacting 10 mM glycine-HCl, pH 1.5.

FcγRIIa R [2] = target: T1, FcγRIIa R; experiment: SPR (Biacore), antibody captured, FcγR as analyte; relative binding
Protocol: as §1, §2

FcγRIIb = target: T2, FcγRIIb; experiment: as above
Protocol: as §1, §2

| Binder | IIaR/IIb (He_2aR/2b) (FcγRIIa R [1]) [ratio] | He/Con_2aR (IIaR binding) (FcγRIIa R [2]) | He/Con_2b (IIb binding) (FcγRIIb) |
| --- | --- | --- | --- |
| GpH7-A5/GpH7-B3 variant E269_01G/GpL16-k0 (antibody, human IgG1, kappa, heterodimerized antibody, mutation in the GpH7-B3 chain only; also called He Ab) heavy 1: not shown heavy 2: not shown light: DIVMTQSPLSLPVTPGEPASISCQASESLVHSNRNTYLHWYLQKPGQSPQLLIYKVSNRFSGVPDRFSGSGSGTDFTLKISRVEAEDVGVYYCSQNTHVPPTFGQGTKVEIERTVAAPSVFIFPPSDEQLKSGTASVVCLLNNFYPREAKVQWKVDNALQSGNSQESVTEQDSKDSTYSLSSTLTLSKADYEKHKVYACEVTHQGLSSPVTKSFNRGEC | 1.27 | 65.3 % of GpH7-A5/GpH7-B3/GpL16-k0 (=100) | 51.5 % of GpH7-A5/GpH7-B3/GpL16-k0 (=100) |
| GpH7-A5/GpH7-B3 variant D265_19Q/GpL16-k0 (antibody, human IgG1, kappa, heterodimerized antibody, mutation in the GpH7-B3 chain only; also called He Ab) heavy 1: not shown heavy 2: not shown light: DIVMTQSPLSLPVTPGEPASISCQASESLVHSNRNTYLHWYLQKPGQSPQLLIYKVSNRFSGVPDRFSGSGSGTDFTLKISRVEAEDVGVYYCSQNTHVPPTFGQGTKVEIERTVAAPSVFIFPPSDEQLKSGTASVVCLLNNFYPREAKVQWKVDNALQSGNSQESVTEQDSKDSTYSLSSTLTLSKADYEKHKVYACEVTHQGLSSPVTKSFNRGEC | 1.64 | 54.8 % of GpH7-A5/GpH7-B3/GpL16-k0 (=100) | 33.4 % of GpH7-A5/GpH7-B3/GpL16-k0 (=100) |
| GpH7-A5/GpH7-B3 variant D265_18N/GpL16-k0 (antibody, human IgG1, kappa, heterodimerized antibody, mutation in the GpH7-B3 chain only; also called He Ab) heavy 1: not shown heavy 2: not shown light: DIVMTQSPLSLPVTPGEPASISCQASESLVHSNRNTYLHWYLQKPGQSPQLLIYKVSNRFSGVPDRFSGSGSGTDFTLKISRVEAEDVGVYYCSQNTHVPPTFGQGTKVEIERTVAAPSVFIFPPSDEQLKSGTASVVCLLNNFYPREAKVQWKVDNALQSGNSQESVTEQDSKDSTYSLSSTLTLSKADYEKHKVYACEVTHQGLSSPVTKSFNRGEC | 2.02 | 12.4 % of GpH7-A5/GpH7-B3/GpL16-k0 (=100) | 6.1 % of GpH7-A5/GpH7-B3/GpL16-k0 (=100) |
| GpH7-A5/GpH7-B3 variant D265_14T/GpL16-k0 (antibody, human IgG1, kappa, heterodimerized antibody, mutation in the GpH7-B3 chain only; also called He Ab) heavy 1: not shown heavy 2: not shown light: DIVMTQSPLSLPVTPGEPASISCQASESLVHSNRNTYLHWYLQKPGQSPQLLIYKVSNRFSGVPDRFSGSGSGTDFTLKISRVEAEDVGVYYCSQNTHVPPTFGQGTKVEIERTVAAPSVFIFPPSDEQLKSGTASVVCLLNNFYPREAKVQWKVDNALQSGNSQESVTEQDSKDSTYSLSSTLTLSKADYEKHKVYACEVTHQGLSSPVTKSFNRGEC | 1.61 | 25.8 % of GpH7-A5/GpH7-B3/GpL16-k0 (=100) | 16 % of GpH7-A5/GpH7-B3/GpL16-k0 (=100) |

Further lines, results first:

| IIaR/IIb (He_2aR/2b) (FcγRIIa R [1]) [ratio] | He/Con_2aR (IIaR binding) (FcγRIIa R [2]) | He/Con_2b (IIb binding) (FcγRIIb) | Binder |
| --- | --- | --- | --- |
| 2.26 | 33.7 % of GpH7-A5/GpH7-B3/GpL16-k0 (=100) | 14.9 % of GpH7-A5/GpH7-B3/GpL16-k0 (=100) | GpH7-A5/GpH7-B3 variant D265_11K/GpL16-k0 (antibody, human IgG1, kappa, heterodimerized antibody, mutation in the GpH7-B3 chain only; also called He Ab) heavy 1: not shown heavy 2: not shown light: DIVMTQSPLSLPVTPGEPASISCQASESLVHSNRNTYLHWYLQKPGQSPQLLIYKVSNRFSGVPDRFSGSGSGTDFTLKISRVEAEDVGVYYCSQNTHVPPTFGQGTKVEIERTVAAPSVFIFPPSDEQLKSGTASVVCLLNNFYPREAKVQWKVDNALQSGNSQESVTEQDSKDSTYSLSSTLTLSKADYEKHKVYACEVTHQGLSSPVTKSFNRGEC |
| 1.31 | 65.3 % of GpH7-A5/GpH7-B3/GpL16-k0 (=100) | 49.9 % of GpH7-A5/GpH7-B3/GpL16-k0 (=100) | GpH7-A5/GpH7-B3 variant E269_02A/GpL16-k0 (antibody, human IgG1, kappa, heterodimerized antibody, mutation in the GpH7-B3 chain only; also called He Ab) heavy 1: not shown heavy 2: not shown light: DIVMTQSPLSLPVTPGEPASISCQASESLVHSNRNTYLHWYLQKPGQSPQLLIYKVSNRFSGVPDRFSGSGSGTDFTLKISRVEAEDVGVYYCSQNTHVPPTFGQGTKVEIERTVAAPSVFIFPPSDEQLKSGTASVVCLLNNFYPREAKVQWKVDNALQSGNSQESVTEQDSKDSTYSLSSTLTLSKADYEKHKVYACEVTHQGLSSPVTKSFNRGEC |
| 1.3 | 58.8 % of GpH7-A5/GpH7-B3/GpL16-k0 (=100) | 45.1 % of GpH7-A5/GpH7-B3/GpL16-k0 (=100) | GpH7-A5/GpH7-B3 variant E269_03V/GpL16-k0 (antibody, human IgG1, kappa, heterodimerized antibody, mutation in the GpH7-B3 chain only; also called He Ab) heavy 1: not shown heavy 2: not shown light: DIVMTQSPLSLPVTPGEPASISCQASESLVHSNRNTYLHWYLQKPGQSPQLLIYKVSNRFSGVPDRFSGSGSGTDFTLKISRVEAEDVGVYYCSQNTHVPPTFGQGTKVEIERTVAAPSVFIFPPSDEQLKSGTASVVCLLNNFYPREAKVQWKVDNALQSGNSQESVTEQDSKDSTYSLSSTLTLSKADYEKHKVYACEVTHQGLSSPVTKSFNRGEC |
| 1.81 | 20.5 % of GpH7-A5/GpH7-B3/GpL16-k0 (=100) | 11.3 % of GpH7-A5/GpH7-B3/GpL16-k0 (=100) | GpH7-A5/GpH7-B3 variant D265_13S/GpL16-k0 (antibody, human IgG1, kappa, heterodimerized antibody, mutation in the GpH7-B3 chain only; also called He Ab) heavy 1: not shown heavy 2: not shown light: DIVMTQSPLSLPVTPGEPASISCQASESLVHSNRNTYLHWYLQKPGQSPQLLIYKVSNRFSGVPDRFSGSGSGTDFTLKISRVEAEDVGVYYCSQNTHVPPTFGQGTKVEIERTVAAPSVFIFPPSDEQLKSGTASVVCLLNNFYPREAKVQWKVDNALQSGNSQESVTEQDSKDSTYSLSSTLTLSKADYEKHKVYACEVTHQGLSSPVTKSFNRGEC |
